Measurements: publication PMC9482650, “Quantitative fragmentomics allow affinity mapping of interactomes” (Nature Communications, 2022)

T1: DFNB31_1, Q9P202
T1 sequence (Q9P202 135-233, limits assumed, looked up): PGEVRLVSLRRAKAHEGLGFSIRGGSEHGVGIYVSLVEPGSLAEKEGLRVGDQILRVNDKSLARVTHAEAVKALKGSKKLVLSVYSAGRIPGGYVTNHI

T2: DFNB31_2, Q9P202
T2 sequence (Q9P202 274-371, limits assumed, looked up): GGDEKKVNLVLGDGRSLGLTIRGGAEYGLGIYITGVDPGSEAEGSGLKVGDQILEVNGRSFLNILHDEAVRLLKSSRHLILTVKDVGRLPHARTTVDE

T3: DLG3_3, Q92796
T3 sequence (Q92796 374-475, limits assumed, looked up): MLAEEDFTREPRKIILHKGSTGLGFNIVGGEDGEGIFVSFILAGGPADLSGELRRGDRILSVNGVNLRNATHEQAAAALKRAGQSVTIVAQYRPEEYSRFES

T4: DVL3, Q92997
T4 sequence (Q92997 244-331, limits assumed, looked up): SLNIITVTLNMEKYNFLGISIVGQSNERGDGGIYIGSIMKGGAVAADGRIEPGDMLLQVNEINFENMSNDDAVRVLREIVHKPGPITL

T5: HTRA4, P83105
T5 sequence (P83105 378-476, limits assumed, looked up): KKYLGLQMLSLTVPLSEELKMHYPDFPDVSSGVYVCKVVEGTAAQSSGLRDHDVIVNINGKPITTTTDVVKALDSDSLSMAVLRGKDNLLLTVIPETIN

T6: LIN7B, Q9HAP6
T6 sequence (Q9HAP6 88-185, limits assumed, looked up): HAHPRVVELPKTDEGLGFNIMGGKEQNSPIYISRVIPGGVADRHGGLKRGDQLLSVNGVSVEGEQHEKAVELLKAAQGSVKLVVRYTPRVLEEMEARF

T7: MPDZ_10, O75970
T7 sequence (O75970 1624-1722, limits assumed, looked up): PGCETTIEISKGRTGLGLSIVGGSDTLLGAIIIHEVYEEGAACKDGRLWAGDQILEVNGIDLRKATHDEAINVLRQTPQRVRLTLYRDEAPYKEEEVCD

T8: NHERF3_1, Q5T2W1
T8 sequence (Q5T2W1 4-100, limits assumed, looked up): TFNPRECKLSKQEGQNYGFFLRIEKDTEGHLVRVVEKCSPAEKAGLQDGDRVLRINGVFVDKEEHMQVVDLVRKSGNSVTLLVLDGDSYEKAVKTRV

T9: RAPGEF6, Q8TEU7
T9 sequence (Q8TEU7 525-625, limits assumed, looked up): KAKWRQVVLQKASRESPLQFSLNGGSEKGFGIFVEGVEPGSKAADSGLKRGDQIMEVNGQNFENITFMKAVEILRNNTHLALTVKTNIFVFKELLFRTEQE

T10: SNTA1, Q13424
T10 sequence (Q13424 82-180, limits assumed, looked up): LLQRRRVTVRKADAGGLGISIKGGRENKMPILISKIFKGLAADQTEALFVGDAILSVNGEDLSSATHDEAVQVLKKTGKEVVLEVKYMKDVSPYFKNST

T11: SNTG1, Q9NSN8
T11 sequence (Q9NSN8 52-150, limits assumed, looked up): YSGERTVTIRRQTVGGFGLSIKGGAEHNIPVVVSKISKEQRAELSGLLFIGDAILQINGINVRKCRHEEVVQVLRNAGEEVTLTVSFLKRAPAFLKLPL

T12: SNTG2, Q9NY99
T12 sequence (Q9NY99 68-166, limits assumed, looked up): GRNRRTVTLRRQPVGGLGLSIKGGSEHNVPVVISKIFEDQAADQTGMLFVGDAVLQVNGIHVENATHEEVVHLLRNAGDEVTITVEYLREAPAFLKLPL

T13: TIAM2, Q8IVF5
T13 sequence (Q8IVF5 885-986, limits assumed, looked up): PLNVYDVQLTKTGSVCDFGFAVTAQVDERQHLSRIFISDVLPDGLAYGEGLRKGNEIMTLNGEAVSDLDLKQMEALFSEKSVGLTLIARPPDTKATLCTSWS


molecular target: T1, DFNB31_1, Q9P202; experiment: holdup assay; design: key: below the threshold = too weak to quantify, mostly under pKd 3.1 to 4; details: plain residues with an end cap or a label only (N-terminal biotin on a linker: ado-ado)

pKd | Binder
below the threshold | NTALVESEDL [PALLS, Q8WX93;Q8WX93-1]
below the threshold | VKQYADVEGF [HNRNPK, P61978;P61978-2]

molecular target: T2, DFNB31_2, Q9P202; experiment: holdup assay; design: key: below the threshold = too weak to quantify, mostly under pKd 3.1 to 4; details: plain residues with an end cap or a label only (N-terminal biotin on a linker: ado-ado)

pKd | Binder
below the threshold | NTALVESEDL [PALLS, Q8WX93;Q8WX93-1]
below the threshold | VKQYADVEGF [HNRNPK, P61978;P61978-2]

molecular target: T3, DLG3_3, Q92796; experiment: holdup assay; design: key: below the threshold = too weak to quantify, mostly under pKd 3.1 to 4; details: plain residues with an end cap or a label only (N-terminal biotin on a linker: ado-ado)

pKd | Binder
below the threshold | NTALVESEDL [PALLS, Q8WX93;Q8WX93-1]
below the threshold | VKQYADVEGF [HNRNPK, P61978;P61978-2]

molecular target: DLG5_1, Q8TDM6; experiment: holdup assay; design: key: below the threshold = too weak to quantify, mostly under pKd 3.1 to 4; details: plain residues with an end cap or a label only (N-terminal biotin on a linker: ado-ado)
Sequence (Q8TDM6 617-713): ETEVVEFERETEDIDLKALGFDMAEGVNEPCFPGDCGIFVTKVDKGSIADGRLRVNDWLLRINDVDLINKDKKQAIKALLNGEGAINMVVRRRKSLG

pKd | Binder
below the threshold | NTALVESEDL [PALLS, Q8WX93;Q8WX93-1]
below the threshold | VKQYADVEGF [HNRNPK, P61978;P61978-2]

molecular target: T4, DVL3, Q92997; experiment: holdup assay; design: key: below the threshold = too weak to quantify, mostly under pKd 3.1 to 4; details: plain residues with an end cap or a label only (N-terminal biotin on a linker: ado-ado)

pKd | Binder
below the threshold | NTALVESEDL [PALLS, Q8WX93;Q8WX93-1]
below the threshold | VKQYADVEGF [HNRNPK, P61978;P61978-2]

molecular target: FRMPD2_3, Q68DX3; experiment: holdup assay; design: key: below the threshold = too weak to quantify, mostly under pKd 3.1 to 4; details: plain residues with an end cap or a label only (N-terminal biotin on a linker: ado-ado)
Sequence (Q68DX3 1073-1166): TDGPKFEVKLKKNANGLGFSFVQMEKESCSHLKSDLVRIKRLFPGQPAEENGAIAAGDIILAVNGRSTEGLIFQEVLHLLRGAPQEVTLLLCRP

pKd | Binder
below the threshold | NTALVESEDL [PALLS, Q8WX93;Q8WX93-1]
below the threshold | VKQYADVEGF [HNRNPK, P61978;P61978-2]

molecular target: GORASP2, Q9H8Y8; experiment: holdup assay; design: key: below the threshold = too weak to quantify, mostly under pKd 3.1 to 4; details: plain residues with an end cap or a label only (N-terminal biotin on a linker: ado-ado)

pKd | Binder
below the threshold | NTALVESEDL [PALLS, Q8WX93;Q8WX93-1]
below the threshold | VKQYADVEGF [HNRNPK, P61978;P61978-2]

molecular target: GRIP2_5, Q9C0E4; experiment: holdup assay; design: key: below the threshold = too weak to quantify, mostly under pKd 3.1 to 4; details: plain residues with an end cap or a label only (N-terminal biotin on a linker: ado-ado)
Sequence (Q9C0E4 544-642): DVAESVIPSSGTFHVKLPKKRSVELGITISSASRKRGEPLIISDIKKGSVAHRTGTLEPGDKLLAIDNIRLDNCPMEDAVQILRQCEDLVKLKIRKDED

pKd | Binder
below the threshold | NTALVESEDL [PALLS, Q8WX93;Q8WX93-1]
below the threshold | VKQYADVEGF [HNRNPK, P61978;P61978-2]

molecular target: T5, HTRA4, P83105; experiment: holdup assay; design: key: below the threshold = too weak to quantify, mostly under pKd 3.1 to 4; details: plain residues with an end cap or a label only (N-terminal biotin on a linker: ado-ado)

pKd | Binder
below the threshold | NTALVESEDL [PALLS, Q8WX93;Q8WX93-1]
below the threshold | VKQYADVEGF [HNRNPK, P61978;P61978-2]

molecular target: IL16_1, Q14005; experiment: holdup assay; design: key: below the threshold = too weak to quantify, mostly under pKd 3.1 to 4; details: plain residues with an end cap or a label only (N-terminal biotin on a linker: ado-ado)
Sequence (Q14005 210-306): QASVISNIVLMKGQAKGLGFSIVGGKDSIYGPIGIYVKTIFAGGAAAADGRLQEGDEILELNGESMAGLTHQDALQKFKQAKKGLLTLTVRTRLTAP

pKd | Binder
below the threshold | NTALVESEDL [PALLS, Q8WX93;Q8WX93-1]
below the threshold | VKQYADVEGF [HNRNPK, P61978;P61978-2]

molecular target: Inadl_8, Q8NI35; experiment: holdup assay; design: key: below the threshold = too weak to quantify, mostly under pKd 3.1 to 4; details: plain residues with an end cap or a label only (N-terminal biotin on a linker: ado-ado)
Sequence (Q8NI35 1425-1530): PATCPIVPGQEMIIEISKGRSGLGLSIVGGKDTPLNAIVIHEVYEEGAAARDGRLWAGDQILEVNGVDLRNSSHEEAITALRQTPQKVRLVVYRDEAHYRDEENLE

pKd | Binder
below the threshold | NTALVESEDL [PALLS, Q8WX93;Q8WX93-1]
below the threshold | VKQYADVEGF [HNRNPK, P61978;P61978-2]

molecular target: LIMK2, P53671; experiment: holdup assay; design: key: below the threshold = too weak to quantify, mostly under pKd 3.1 to 4; details: plain residues with an end cap or a label only (N-terminal biotin on a linker: ado-ado)
Sequence (P53671 143-248): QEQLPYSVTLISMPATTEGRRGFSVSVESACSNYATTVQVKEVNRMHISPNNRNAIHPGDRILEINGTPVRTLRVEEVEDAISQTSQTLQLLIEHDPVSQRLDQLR

pKd | Binder
below the threshold | NTALVESEDL [PALLS, Q8WX93;Q8WX93-1]
below the threshold | VKQYADVEGF [HNRNPK, P61978;P61978-2]

molecular target: T6, LIN7B, Q9HAP6; experiment: holdup assay; design: key: below the threshold = too weak to quantify, mostly under pKd 3.1 to 4; details: plain residues with an end cap or a label only (N-terminal biotin on a linker: ado-ado)

pKd | Binder
below the threshold | NTALVESEDL [PALLS, Q8WX93;Q8WX93-1]

molecular target: T7, MPDZ_10, O75970; experiment: holdup assay; design: key: below the threshold = too weak to quantify, mostly under pKd 3.1 to 4; details: plain residues with an end cap or a label only (N-terminal biotin on a linker: ado-ado)

pKd | Binder
below the threshold | NTALVESEDL [PALLS, Q8WX93;Q8WX93-1]
below the threshold | VKQYADVEGF [HNRNPK, P61978;P61978-2]

molecular target: T8, NHERF3_1, Q5T2W1; experiment: holdup assay; design: key: below the threshold = too weak to quantify, mostly under pKd 3.1 to 4; details: plain residues with an end cap or a label only (N-terminal biotin on a linker: ado-ado)

pKd | Binder
below the threshold | NTALVESEDL [PALLS, Q8WX93;Q8WX93-1]

molecular target: NOS1, P29475; experiment: holdup assay; design: key: below the threshold = too weak to quantify, mostly under pKd 3.1 to 4; details: plain residues with an end cap or a label only (N-terminal biotin on a linker: ado-ado)
Sequence (P29475 9-101): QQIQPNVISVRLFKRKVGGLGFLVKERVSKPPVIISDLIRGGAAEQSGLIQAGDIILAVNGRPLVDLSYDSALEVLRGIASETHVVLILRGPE

pKd | Binder
below the threshold | NTALVESEDL [PALLS, Q8WX93;Q8WX93-1]
below the threshold | VKQYADVEGF [HNRNPK, P61978;P61978-2]

molecular target: PARD3_3, Q8TEW0; experiment: holdup assay; design: key: below the threshold = too weak to quantify, mostly under pKd 3.1 to 4; details: plain residues with an end cap or a label only (N-terminal biotin on a linker: ado-ado)
Sequence (Q8TEW0 582-685): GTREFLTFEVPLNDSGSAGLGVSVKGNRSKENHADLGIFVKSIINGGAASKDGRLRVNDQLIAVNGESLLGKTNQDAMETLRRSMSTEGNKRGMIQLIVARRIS

pKd | Binder
below the threshold | VKQYADVEGF [HNRNPK, P61978;P61978-2]

molecular target: PDLIM1, O00151; experiment: holdup assay; design: key: below the threshold = too weak to quantify, mostly under pKd 3.1 to 4; details: plain residues with an end cap or a label only (N-terminal biotin on a linker: ado-ado)
Sequence (O00151 1-87): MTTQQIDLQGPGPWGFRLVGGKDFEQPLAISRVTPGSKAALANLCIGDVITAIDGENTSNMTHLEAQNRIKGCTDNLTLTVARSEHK

pKd | Binder
5.47 | NTALVESEDL [PALLS, Q8WX93;Q8WX93-1]
below the threshold | VKQYADVEGF [HNRNPK, P61978;P61978-2]

molecular target: T9, RAPGEF6, Q8TEU7; experiment: holdup assay; design: key: below the threshold = too weak to quantify, mostly under pKd 3.1 to 4; details: plain residues with an end cap or a label only (N-terminal biotin on a linker: ado-ado)

pKd | Binder
below the threshold | NTALVESEDL [PALLS, Q8WX93;Q8WX93-1]
below the threshold | VKQYADVEGF [HNRNPK, P61978;P61978-2]

molecular target: SCRIB_1, Q14160; experiment: holdup assay; design: key: below the threshold = too weak to quantify, mostly under pKd 3.1 to 4; details: plain residues with an end cap or a label only (N-terminal biotin on a linker: ado-ado)
Sequence (Q14160 718-814): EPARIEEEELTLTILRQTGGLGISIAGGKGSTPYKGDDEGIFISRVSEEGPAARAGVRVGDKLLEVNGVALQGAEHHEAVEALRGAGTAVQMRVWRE

pKd | Binder
below the threshold | NTALVESEDL [PALLS, Q8WX93;Q8WX93-1]
below the threshold | VKQYADVEGF [HNRNPK, P61978;P61978-2]

molecular target: T10, SNTA1, Q13424; experiment: holdup assay; design: key: below the threshold = too weak to quantify, mostly under pKd 3.1 to 4; details: plain residues with an end cap or a label only (N-terminal biotin on a linker: ado-ado)

pKd | Binder
below the threshold | NTALVESEDL [PALLS, Q8WX93;Q8WX93-1]
below the threshold | VKQYADVEGF [HNRNPK, P61978;P61978-2]

molecular target: T11, SNTG1, Q9NSN8; experiment: holdup assay; design: key: below the threshold = too weak to quantify, mostly under pKd 3.1 to 4; details: plain residues with an end cap or a label only (N-terminal biotin on a linker: ado-ado)

pKd | Binder
below the threshold | NTALVESEDL [PALLS, Q8WX93;Q8WX93-1]
below the threshold | VKQYADVEGF [HNRNPK, P61978;P61978-2]

molecular target: T12, SNTG2, Q9NY99; experiment: holdup assay; design: key: below the threshold = too weak to quantify, mostly under pKd 3.1 to 4; details: plain residues with an end cap or a label only (N-terminal biotin on a linker: ado-ado)

pKd | Binder
below the threshold | NTALVESEDL [PALLS, Q8WX93;Q8WX93-1]
below the threshold | VKQYADVEGF [HNRNPK, P61978;P61978-2]

molecular target: T13, TIAM2, Q8IVF5; experiment: holdup assay; design: key: below the threshold = too weak to quantify, mostly under pKd 3.1 to 4; details: plain residues with an end cap or a label only (N-terminal biotin on a linker: ado-ado)

pKd | Binder
below the threshold | NTALVESEDL [PALLS, Q8WX93;Q8WX93-1]
3.94 | VKQYADVEGF [HNRNPK, P61978;P61978-2]
